Results: patent US9012217B2, “Benzimidazole compounds differentiate a mammalian stem cell into mesodermal or cardiomyocyte cells” (Burnham Institute for Medical Research, priority 2008, dated 2015)

B1: Activin A (protein, UniProt P08476 311-426, looked up)
Inhibin beta A chain: GLECDGKVNICCKKQFFVSFKDIGWNDWIIAPSGYHANYCEGECPSHIAGTSGSSLSFHSTVINHYRMRGHSPFANLKSCCVPTKLRPMSMLYYDDGQNIIKKDIQNMIVEECGCS
notes: "an inducer of anterior mesoderm and endoderm"
B2: BMP4 (protein, UniProt P12644 293-408, looked up)
Bone morphogenetic protein 4: SPKHHSQRARKKNKNCRRHSLYVDFSDVGWNDWIVAPPGYQAFYCHGDCPFPLADHLNSTNHAIVQTLVNSVNSSIPKACCVPTELSAISMLYLDEYDKVVLKNYQEMVVEGCGCR
notes: "posteriorizing growth factors such as BMP4"

Assays:
[1] = test system: CGR8 mESCs stably transfected with eGFP under control of the alpha myosin heavy chain (aMHC) promoter; assay: cardiomyocyte screening assay (aMHC-eGFP mESC differentiation, imaging); format: cell-based, mouse; settings: structure IIA; activity relative to compound 28 = 100%
Description: The primary screen is conducted with CGR8 mESCs stably transfected with eGFP under control of the alpha myosin heavy chain (aMHC) promoter (Takahashi, et al., Circulation, 107(14):1912, 2003). The bioassay is run essentially as described (Bushway et al., Methods Enzymol, 414:300, 2006). Briefly, cells were seeded onto Greiner 384 well microclear bottom microtiter plates in ½ well volume at a density of ˜229 cells/mm2. […]
The optimal time to stop the differentiation is empirically determined to be at day 9 of differentiation, when cardiomyocytes appear in positive control cultures that have higher density cells or culture the cells in embryoid body (not monolayer) culture. […] Image quantification is done using a simple image subtraction routine that subtracted the red channel images from the green (eGFP) channel images to remove background signal from the eGFP images. […]
Follow-up confirmations and testing of hits for SAR were performed on the Hamilton STAR fluid handler with integrated Kendro Cytomat plate hotel and Kendro Cytomat plate incubators using the Hamilton STAR liquid handler robot. […] Image quantification is performed on captured TIFF images using the Developer Toolbox (GE/Amersham) with custom algorithms. […]

[2] = test system: mESC; assay: serum-free mESC cardiac differentiation assay (day 2 to day 4 exposure); format: cell-based, mouse; settings: added alone, day 2 to day 4, serum free
Description: To define the point of action in more detail, a more focused assay is designed to probe the activities of the compounds between days 2-4 of differentiation. Of note is that the original assay is performed in the presence of serum, which activates many pathways that obscure the targets of the small molecules. Since serum activates many pathways and many genes, its presence confounds analysis of downstream targets. Thus, a serum-free mESC cardiac differentiation assay is set up to more precisely validate the activity of the compounds and determine if they acted independently or synergized with a known inducer. The refined assay, diagrammed in FIG. 4, tested the ability of the small molecules to stimulate mesodermal differentiation from day 2 to day 4. Differentiation is initiated by aggregating mESC into embryoid bodies (EBs) in serum free conditions. Day 2 EBs were dispersed in the presence of growth factors or small molecules to allow maximal exposure. Cells were allowed to re-aggregate into EBs until day 4 when they were dispersed and plated in conducive conditions for cardiac differentiation to day 9, at which point eGFP is imaged and quantified by the algorithm described above.
FIG. 5 summarizes experiments showing synergy with Activin/Nodal signaling.

Row | Molecule | Activity [1] | cardiogenesis (cardiomyocytes at day 9) [2]
1 | COc1nnc(Nc2ccc3c(c2)ncn3C2CC2)c2ccccc12 [Compound 104] | INACTIVE | –
2 | B1 | – | efficient cardiogenesis
3 | B2 | – | does not
